Values of other authors as cited in article PMC4826273.

Biological target: Dll-1 (Homo sapiens) (UniProt O00548)
Test: surface plasmon resonance

Sequence of UniProt O00548 (O00548 18-545): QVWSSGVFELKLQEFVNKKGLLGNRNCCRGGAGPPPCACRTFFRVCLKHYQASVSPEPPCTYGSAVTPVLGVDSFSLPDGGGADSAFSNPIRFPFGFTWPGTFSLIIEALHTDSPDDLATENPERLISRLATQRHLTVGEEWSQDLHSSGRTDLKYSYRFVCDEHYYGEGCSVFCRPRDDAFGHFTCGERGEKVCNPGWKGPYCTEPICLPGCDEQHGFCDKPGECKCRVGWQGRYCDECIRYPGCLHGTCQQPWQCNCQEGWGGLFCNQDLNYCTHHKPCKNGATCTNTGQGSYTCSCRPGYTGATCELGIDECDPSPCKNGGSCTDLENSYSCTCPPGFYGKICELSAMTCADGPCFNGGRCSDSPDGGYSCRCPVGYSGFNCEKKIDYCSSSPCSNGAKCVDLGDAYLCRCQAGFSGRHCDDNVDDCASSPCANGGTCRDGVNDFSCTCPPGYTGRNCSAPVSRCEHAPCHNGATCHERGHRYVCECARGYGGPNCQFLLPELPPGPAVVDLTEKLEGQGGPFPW

Kd: 130 µM
Substance: Notch1 (from UniProt P46531)
